Assay results: patent US10925971B2, “Methods of treating PRLR positive breast cancer” (Regeneron Pharmaceuticals, Inc., priority 2016, dated 2021)

Legend:
HEK293 (293) cells = experiment: In vitro cell viability (cell kill) assay, CCK8; assay type: cell-based, human; conditions: 293; Table 11; 3 days
Description: (§1) PRLR-overexpressing cells, including HEK293, PC3, MCF7 and NCI-N87, were generated to assess the ability of anti-PRLR conjugated antibodies to reduce cell viability. For comparative purposes, PC3 and T47D cells with overexpressed ErbB2 were also generated, as well as an MCF7 cell line over-expressing both hPRLR and hErbB2. Briefly, Lipofectamine® 2000-mediated transfection methodology was utilized to generate HEK293 cells expressing human PRLR (HEK293/hPRLR) or human ErbB2 (HEK293/hErbB2). Lipofectamine LTX with Plus Reagent was used to generate PC3 cells expressing human PRLR (PC3/hPRLR) or human ErbB2 (PC3/hErbB2). Lentiviral-mediated transduction was utilized to generate MCF7 cells expressing human PRLR (MCF7/hPRLR), NCI-N87 cells expressing human PRLR (NCI-N87/hPRLR), T47D cells over-expressing human ErbB2 (T47D/hErbB2), and MCF7 cells expressing both human PRLR and human ErbB2 (MCF7/hPRLR/hErbB2). All lines were selected for at least two weeks in complete growth media plus appropriate selection reagents. Stably expressing populations were enriched for PRLR expression via FACS using the anti PRLR antibody Control I.
(§2) Next, the ability of anti-PRLR-DM1 antibody-drug conjugates (i.e., anti-PRLR antibodies conjugated to DM1 via a non-cleavable linker [SMCC]) to reduce cell viability was determined using in vitro cell based assays. Cells were seeded in PDL-coated 96 well plates at 1500 to 10000 cells per well in complete growth media and allowed to grow overnight. For cell viability curves, ADCs or free DM1 (as the methyl disulfide derivative DM1-SMe) were added to the cells at final concentrations ranging from 500 nM to 5 pM and incubated for 3 days. The 293, PC3 and T47D cells were incubated with CCK8 (Dojindo, Rockville, Md.) for the final 1-3 hours and the absorbance at 450 nm (OD450) was determined on a Flexstation3 (Molecular Devices, Sunnyvale, Calif.). MCF7 cells were treated with Hoechst 33342 nuclear stain while being fixed with 4% formaldehyde. Images were acquired on the ImageXpress micro XL (Molecular Devices, Sunnyvale, Calif.) and nuclear counts were determined via Columbus image analysis software (Perkin Elmer, Shelton, Conn.). Background OD450 values (PC3, 293, and T47D) or nuclear counts (MCF7) from digitonin (40 nM) treated cells was subtracted from all wells and viability was expressed as a percentage of the untreated controls. IC50 values were determined from a four-parameter logistic equation over a 10-point response curve (GraphPad Prism).

PC3 cells = experiment: In vitro cell viability (cell kill) assay, CCK8; assay type: cell-based, human; conditions: Table 11, 3 days
Description: as §1, §2

| Molecule | % Kill (HEK293 (293) cells) [%] | % Kill (PC3 cells) [%] | IC50 (HEK293 (293) cells) [µM] | IC50 (PC3 cells) [µM] |
| --- | --- | --- | --- | --- |
| H1H6803P-DM1 (conjugate) VH: EVQLVESGGGVVRPGGSLRLSCAASGFKFDDYGMTWVRHVPGKGLEWVSGINWNGGRTGYTDSVKGRFTISRDNAKNSLYLQMNSLRAEDTALYHCAGARRDAFDIWGQGTMVTVSS VL: DIQMTQSPSSLSASIGDRVTITCRASQNIIKYLNWYQQNAGKAPKLLIYTASSLQSGVPSRFSGSGSGTDFTLTISSLQPEDFATYYCQQSSSSPYTFGQGTKLEIK | 7 | 72 |  |  |
| H1H6959N2-DM1 (conjugate) VH: EVQLVESGGGLVQPGRSLRLSCAASGFTFDDYAMHWVRQAPGKGLEWVSGISWHSGIIGYADSVKGRFTISRDNAKNSLYLQMNSLRTEDAALYYCAKIGSYFYFDSWGQGTLVTVSS VL: EIVLTQSPGTLSLSPGERATLSCRASQSVSSNYLAWYQQKPGQAPRLLIYGASSRATGIPDRFSGSGSGTDFTLTISRLEPEDFAVYYCQQFGSSGYTFGQGTNLEIK |  | 79 | 0.075 | 0.15 |
